Laboratory results reported in doi:10.1101/2022.02.18.481027, “Structural insights into the assembly and activation of IL-27 signalling complex” (bioRxiv, 2022).

T1: p28 (IL-27p28), recombinant, alone (murine, UniProt Q8K3I6 29-234)
T1 construct: IL-27p28 (p28) without EBI3; the construct is not described; The methods of expression name no p28 construct; source: recombinantly produced
T1 sequence (looked up): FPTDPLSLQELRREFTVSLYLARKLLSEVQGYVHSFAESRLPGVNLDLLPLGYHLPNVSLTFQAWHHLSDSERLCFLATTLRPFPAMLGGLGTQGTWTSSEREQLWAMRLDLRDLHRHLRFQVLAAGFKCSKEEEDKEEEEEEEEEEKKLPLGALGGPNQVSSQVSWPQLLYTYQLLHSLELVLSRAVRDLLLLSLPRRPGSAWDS

T2: Murine GP130 ectodomain with C-terminal biotin acceptor peptide, biotinylated (murine, UniProt Q00560 23-319, biotin on the biotin acceptor peptide (BirA ligase))
T2 chain: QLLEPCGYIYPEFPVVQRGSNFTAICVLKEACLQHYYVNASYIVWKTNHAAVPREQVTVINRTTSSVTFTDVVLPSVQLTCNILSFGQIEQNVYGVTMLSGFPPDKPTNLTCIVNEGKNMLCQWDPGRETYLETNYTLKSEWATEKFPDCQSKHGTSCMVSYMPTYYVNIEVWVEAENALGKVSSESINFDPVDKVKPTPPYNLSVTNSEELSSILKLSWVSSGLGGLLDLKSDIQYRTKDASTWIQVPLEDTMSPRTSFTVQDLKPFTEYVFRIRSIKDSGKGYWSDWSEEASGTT

T3: Murine IL-27Rα ectodomain (amino acids 28-224), N-terminally biotinylated (murine, UniProt O70394 28-224, N-terminal biotin (EZ-Link Sulfo-NHS-SS-Biotin, at pH 6.5))
T3 chain: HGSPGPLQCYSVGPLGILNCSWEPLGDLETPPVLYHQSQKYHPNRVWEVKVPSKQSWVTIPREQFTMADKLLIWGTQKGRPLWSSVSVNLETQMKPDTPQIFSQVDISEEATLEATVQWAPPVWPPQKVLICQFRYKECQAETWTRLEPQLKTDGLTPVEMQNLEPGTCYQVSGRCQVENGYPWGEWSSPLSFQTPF


Tests used:
[1] = biological target: T1, p28 (IL-27p28), recombinant, alone; assay: SPR; biotinylated IL-27Rα or GP130 immobilised on a streptavidin chip (Series S Sensor SA), p28 flowed over; equilibrium analysis; 10 mM HEPES, 150 mM NaCl, 0.05% TWEEN-20, 0.5% BSA; Biacore T100; details: both partners purified
[2] = biological target: T2, Murine GP130 ectodomain with C-terminal …; assay: SPR
[3] = biological target: T3, Murine IL-27Rα ectodomain (amino acids …); assay: SPR

Binder	Kd [1]	koff [2]	koff [3]
Murine IL-27Rα ectodomain (amino acids 28-224), N-terminally biotinylated (receptor, UniProt O70394 28-224, looked up, N-terminal biotin (EZ-Link Sulfo-NHS-SS-Biotin, at pH 6.5), murine IL-27Rα, amino acids 28-224; also called biotinylated IL-27Rα; source: baculovirus, Trichoplusia ni (High Five) cells, secreted, purified (Ni-NTA, SEC), biotinylated in vitro) HGSPGPLQCYSVGPLGILNCSWEPLGDLETPPVLYHQSQKYHPNRVWEVKVPSKQSWVTIPREQFTMADKLLIWGTQKGRPLWSSVSVNLETQMKPDTPQIFSQVDISEEATLEATVQWAPPVWPPQKVLICQFRYKECQAETWTRLEPQLKTDGLTPVEMQNLEPGTCYQVSGRCQVENGYPWGEWSSPLSFQTPF	2.8 µM	–	–
Murine IL-27, linker-connected single-chain variant (p28+EBI3) (ligand) chain 1: YTETALVALSQPRVQCHASRYPVAVDCSWTPLQAPNSTRSTSFIATYRLGVATQQQSQPCLQRSPQASRCTIPDVHLFSTVPYMLNVTAVHPGGASSSLLAFVAERIIKPDPPEGVRLRTAGQRLQVLWHPPASWPFPDIFSLKYRLRYRRRGASHFRQVGPIEATTFTLRNSKPHAKYCIQVSAQDLTDYGKPSDWSLPGQVESAPHKP chain 2: FPTDPLSLQELRREFTVSLYLARKLLSEVQGYVHSFAESRLPGVNLDLLPLGYHLPNVSLTFQAWHHLSDSERLCFLATTLRPFPAMLGGLGTQGTWTSSEREQLWAMRLDLRDLHRHLRFQVLAAGFKCSKEEEDKEEEEEEEEEEKKLPLGALGGPNQVSSQVSWPQLLYTYQLLHSLELVLSRAVRDLLLLSLPRRPGSAWDS	–	0.021 s⁻¹	0.001 s⁻¹
